In the test the target is RhoA (UniProt P61586).
Sequence of RhoA (P61586 whole entry): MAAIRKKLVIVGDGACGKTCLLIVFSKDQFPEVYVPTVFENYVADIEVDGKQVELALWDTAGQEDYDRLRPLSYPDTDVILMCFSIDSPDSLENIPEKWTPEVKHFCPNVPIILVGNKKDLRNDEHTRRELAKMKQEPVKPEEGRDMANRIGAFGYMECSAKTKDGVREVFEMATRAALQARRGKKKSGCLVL

Sequence of SseJ (Q9FD10 whole entry): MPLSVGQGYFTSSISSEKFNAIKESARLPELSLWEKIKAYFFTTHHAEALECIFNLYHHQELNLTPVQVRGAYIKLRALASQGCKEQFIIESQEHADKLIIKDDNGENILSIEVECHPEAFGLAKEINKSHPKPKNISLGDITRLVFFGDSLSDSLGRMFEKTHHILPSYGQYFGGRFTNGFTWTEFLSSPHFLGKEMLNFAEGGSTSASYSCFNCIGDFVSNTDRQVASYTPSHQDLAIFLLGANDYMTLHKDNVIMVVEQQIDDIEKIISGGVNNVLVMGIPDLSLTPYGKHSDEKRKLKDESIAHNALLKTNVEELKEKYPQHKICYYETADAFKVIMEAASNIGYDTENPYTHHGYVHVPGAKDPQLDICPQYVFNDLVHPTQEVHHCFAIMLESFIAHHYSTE

With “SseJ (from UniProt Q9FD10 1-408) (enzyme)”, the SseJ lipase stimulation (PNPP), 200 nM SseJ and 200 nM RhoA-GDP was determined as 0.21 mAU/min; the SseJ lipase stimulation (PNPP), 200 nM SseJ and 200 nM RhoA-GTPγS was determined as 1.2 mAU/min.

The record behind these values is article PMC5096451.
